Test results taken from paper PMC9192595, “Dynamic interaction of BRCA2 with telomeric G-quadruplexes underlies telomere replication homeostasis”.

Legend:
BRCA2OB [1] = biological target: T1, BRCA2OB (human, UniProt P51587 2665-3197); experiment: EMSA; 100 mM KCl; EMSA: 10 nM probe, 50 mM Tris-HCl pH 7.5, 100 mM KCl, 2 mM b-ME, 10% glycerol, probe pre-incubated 37 C, gel 4 C (RAD51: +1 mM MgCl2, 2 mM ATP); smFRET: 50 mM Tris-HCl pH 7.9, 100 mM KCl, 20 mM NaCl, 1 mM DTT, 0.1 mg/ml BSA, 9% glycerol, 37 C; conditions: protein: recombinant; tags: N-MBP, C-6xHis; label: 5' 32P; intramolecular G4
T1 sequence: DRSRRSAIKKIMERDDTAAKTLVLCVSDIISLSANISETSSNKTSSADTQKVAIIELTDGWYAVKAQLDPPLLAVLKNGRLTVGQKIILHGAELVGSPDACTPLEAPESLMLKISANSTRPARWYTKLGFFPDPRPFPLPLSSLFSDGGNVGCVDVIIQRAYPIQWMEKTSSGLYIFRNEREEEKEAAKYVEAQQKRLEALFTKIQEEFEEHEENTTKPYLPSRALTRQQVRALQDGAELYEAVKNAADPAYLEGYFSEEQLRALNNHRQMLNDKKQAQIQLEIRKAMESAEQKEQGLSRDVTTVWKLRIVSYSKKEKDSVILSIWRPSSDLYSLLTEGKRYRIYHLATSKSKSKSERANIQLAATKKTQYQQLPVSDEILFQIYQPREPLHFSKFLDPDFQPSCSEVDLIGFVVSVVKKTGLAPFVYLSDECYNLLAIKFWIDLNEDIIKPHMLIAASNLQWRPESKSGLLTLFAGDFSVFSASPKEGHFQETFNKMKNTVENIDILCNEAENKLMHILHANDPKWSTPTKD

POT1OB = biological target: T2, POT1OB (human, UniProt Q9NUX5 10-278); experiment: as above; conditions: protein: recombinant, tags: N-MBP, C-6xHis, label: 5' 32P
T2 sequence: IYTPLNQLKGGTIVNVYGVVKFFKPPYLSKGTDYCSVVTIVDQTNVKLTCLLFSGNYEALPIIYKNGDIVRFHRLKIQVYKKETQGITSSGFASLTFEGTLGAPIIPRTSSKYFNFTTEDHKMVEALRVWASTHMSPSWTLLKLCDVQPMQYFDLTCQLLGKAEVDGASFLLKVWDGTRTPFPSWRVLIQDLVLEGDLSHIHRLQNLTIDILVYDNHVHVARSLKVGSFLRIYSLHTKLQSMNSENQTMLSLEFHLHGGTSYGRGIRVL

BRCA2OB [2] = biological target: T1, BRCA2OB; experiment: as above; conditions: protein: recombinant; tags: N-MBP, C-6xHis; label: 5' 32P; intramolecular G4; remark: listed apart in the source
RAD51 [3] = biological target: T3, RAD51 (human, UniProt Q06609 1-339); experiment: EMSA; ATP; facilitated by BRCA2OB, about constant with dose; EMSA: 10 nM probe, 50 mM Tris-HCl pH 7.5, 100 mM KCl, 2 mM b-ME, 10% glycerol, probe pre-incubated 37 C, gel 4 C (RAD51: +1 mM MgCl2, 2 mM ATP); smFRET: 50 mM Tris-HCl pH 7.9, 100 mM KCl, 20 mM NaCl, 1 mM DTT, 0.1 mg/ml BSA, 9% glycerol, 37 C; conditions: protein: commercial; label: 5' 32P; intramolecular G4
BRCA2OB [4] = biological target: T1, BRCA2OB; experiment: EMSA; 100 mM KCl; rough estimate, max protein 1 uM; EMSA: 10 nM probe, 50 mM Tris-HCl pH 7.5, 100 mM KCl, 2 mM b-ME, 10% glycerol, probe pre-incubated 37 C, gel 4 C (RAD51: +1 mM MgCl2, 2 mM ATP); smFRET: 50 mM Tris-HCl pH 7.9, 100 mM KCl, 20 mM NaCl, 1 mM DTT, 0.1 mg/ml BSA, 9% glycerol, 37 C; conditions: protein: recombinant; tags: N-MBP, C-6xHis; label: 5' 32P; intramolecular G4 (dynamic)
RAD51 [5] = biological target: T3, RAD51; experiment: EMSA; 250 nM RAD51, 2 mM ATP, no BRCA2OB; EMSA: 10 nM probe, 50 mM Tris-HCl pH 7.5, 100 mM KCl, 2 mM b-ME, 10% glycerol, probe pre-incubated 37 C, gel 4 C (RAD51: +1 mM MgCl2, 2 mM ATP); smFRET: 50 mM Tris-HCl pH 7.9, 100 mM KCl, 20 mM NaCl, 1 mM DTT, 0.1 mg/ml BSA, 9% glycerol, 37 C; conditions: protein: commercial; label: 5' 32P; intramolecular G4 (dynamic)
BRCA2OB [6] = biological target: T1, BRCA2OB; experiment: EMSA; 100 mM KCl; EMSA: 10 nM probe, 50 mM Tris-HCl pH 7.5, 100 mM KCl, 2 mM b-ME, 10% glycerol, probe pre-incubated 37 C, gel 4 C (RAD51: +1 mM MgCl2, 2 mM ATP); smFRET: 50 mM Tris-HCl pH 7.9, 100 mM KCl, 20 mM NaCl, 1 mM DTT, 0.1 mg/ml BSA, 9% glycerol, 37 C; conditions: protein: recombinant; tags: N-MBP, C-6xHis; label: 5' 32P; intramolecular G4; remark: listed apart in the source
BRCA2OB [7] = biological target: T1, BRCA2OB; experiment: as above; conditions: protein: recombinant; tags: N-MBP, C-6xHis; label: 5' 32P; G-triplex / G3:G4

T3 sequence (Q06609 whole entry): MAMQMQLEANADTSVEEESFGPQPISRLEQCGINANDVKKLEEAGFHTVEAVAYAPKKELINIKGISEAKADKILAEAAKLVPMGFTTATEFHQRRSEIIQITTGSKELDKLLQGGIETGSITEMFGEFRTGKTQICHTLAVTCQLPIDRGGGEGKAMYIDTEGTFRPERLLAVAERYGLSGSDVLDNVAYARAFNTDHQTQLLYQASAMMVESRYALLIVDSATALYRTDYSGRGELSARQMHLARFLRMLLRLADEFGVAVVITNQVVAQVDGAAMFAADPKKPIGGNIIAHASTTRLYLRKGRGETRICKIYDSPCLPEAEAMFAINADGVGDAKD

GGTTTGGGTTTGGGTTTGGGTTTGGGTTTG (structured_DNA) [TelG5TTT]
Kd (BRCA2OB [1]): 0.456 µM | binding result (POT1OB; intramolecular G4): no binding | binding signal (BRCA2OB [2]): ~9 fold vs TelG5 | binding result (RAD51 [3]): binds

GGTTAGGGTTAGGGTTAGGGTTAGGGTTAG (structured_DNA) [TelG5]
Kd (BRCA2OB [4]): 4.4 µM | binding result (POT1OB; intramolecular G4 (dynamic)): binds | binding result (RAD51 [5]): binds

GGTTTGGGTTGGGTTGGGTTGGGTTTG (structured_DNA) [TelG5TT]
binding signal (BRCA2OB [6]): 13 fold vs TelG5

GGTTAGGGTTAGGGTTAGTGTTAGGGTTAG (structured_DNA) [TelG5-G3]
binding signal (BRCA2OB [7]): 3 fold vs TelG5
